Data reported in the supplement of paper PMC10201428.
± gives the standard deviation of the averaged measurements.

Assays:
[1] = system: VchCAST RNA-guided transposition machinery (E. coli BL21(DE3) host, lacZ target); assay: relative integration efficiency (T-RL orientation) vs wild-type transposon end (log2 (normalized fold change)); transposon end mutated: right end (5 bp flank + 75 bp right end); higher = more efficient transposition
Method in brief: (§1)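 In E. coli BL21(DE3), a T7-driven effector plasmid was paired with a pUC57 mini-transposon donor containing 1549 left-end or 1849 right-end barcoded transposon variants. Cells grew on plates with 0.1 mM IPTG at 37°C for 18 h. Relative integration efficiency was derived from Illumina reads of genomic integration junctions against input plasmids, as a log-transformed output/input barcode fold change normalised to reference barcodes.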

[2] = system: VchCAST RNA-guided transposition machinery (E. coli BL21(DE3) host, lacZ target); assay: relative integration efficiency (T-LR orientation) vs wild-type transposon end (log2 (normalized fold change)); transposon end mutated: right end (5 bp flank + 75 bp right end); higher = more efficient transposition
Method in brief: as §1

| Sequence | relative integration efficiency (log2) [1] | relative integration efficiency (log2) [2] |
| --- | --- | --- |
| ACATTTGTTGATACAACCATAAAATGATAATTACACCCATAAATTGATAATTGTGACACCGAATTTAACTATAACGCTCTGATCATAGTCAGACCAACATTGCTACGACCCGTATTCGCACCGACAC | -0.766 ± 0.25 | 2.87 ± 0.14 |
| ACATTTGTCGATACAACCATAAAATGATAATTCACCCATCAATTGATAATTATCACACCCCAATTTAACTATAACGCTCTGATCATAGTCAGACCAACATTGCTACGACCCGTATTCGCACCGACAC | -3.3 ± 0.52 | 0.029 ± 0.092 |
| ACATTTGTGGATACAACCATAAAATGATAATTCACCCATAAATTGATAATTATCACACCCCAATTTAACTATAACGCTCTGATCATAGTCAGACCAACATTGCTACGACCCGTATTCGCACCGACAC | -1.92 ± 0.17 | 1.23 ± 0.028 |
| ACATTTGTTGATACAACCATAAAATGATAATGACACCCATAAATTGATAATGATCACACCCATAAATTGATATTTCCTCTGATCATAGTCAGACCAACATTGCTACGACCCGTATTCGCACCGACAC | -0.238 ± 0.065 | 0.195 ± 0.093 |
| ACATTTGTTGATACAACCATAAAATTCGCATTACACCCATAAATTGATAATTATCACACCCATAAATTGATATTGCCTCTGATCATAGTCAGACCAACATTGCTACGACCCGTATTCGCACCGACAC | -2.95 ± 0.25 | -2.45 ± 0.2 |
| ACATTTGTTGATACACCCATAAATTGATAATTACACCCATAAATTGATAATTATCAGTGGGTATTTAACTATAACGCTCTGATCATAGTCAGACCAACATTGCTACGACCCGTATTCGCACCGACAC | -0.394 ± 0.0092 | 2.54 ± 0.063 |
| ACATTTGTTGATATGTTGACAACCATAAAATGATAATTACACCCATAAATTGATAATTATCACACCCATAAATTGATATTGCCTCTGATCATAGTCAGACCAACATTGCTACGACCCGTATTCGCAC | -6.69 ± 0.15 | -5.78 ± 1.9 |
| ACATTTGTCGATACAACCATAAAACGATAATTACACCCATAAATGGATCATTATCACACCCAATTTAACTATAACGCTCTGATCATAGTCAGACCAACATTGCTACGACCCGTATTCGCACCGACAC | -1.91 ± 0.19 | 0.741 ± 0.05 |
| ACATTTGTTGATACAACCAATAAATGATTATTACACCCATAAATTGATAATAATGACACCGAATTTAACTATAACGCTCTGATCATAGTCAGACCAACATTGCTACGACCCGTATTCGCACCGACAC | 0.0749 ± 0.43 | 3.45 ± 0.19 |
| ACATTTGTCGATCCAACCATAAAATGATAATTACACCCATAAATTGATAATTATCACACCCAATTTAACTATAACGCTCTGATCATAGTCAGACCAACATTGCTACGACCCGTATTCGCACCGACAC | -0.969 ± 0.28 | 2.2 ± 0.23 |
| ACATTTGTCGATACAACCATAAAATGATAATTACCACCCATACATTGATAATTATCACACCCATTTAACTATAACGCTCTGATCATAGTCAGACCAACATTGCTACGACCCGTATTCGCACCGACAC | -2.37 ± 0.32 | 0.0639 ± 0.32 |
| ACATTTGTTGATACAACCATAAAGTGATATTTACACCCATAAATTGATATTGCTCACACCCATAAATTGATATTGCCTCTGATCATAGTCAGACCAACATTGCTACGACCCGTATTCGCACCGACAC | -0.333 ± 0.062 | 0.438 ± 0.27 |
| ACATTTGTTGATACAACCATAAAATGATAATTACACCCATAAATTGATAATTATCACCCATAAATTGATATTGCCTCTGATCATAGTCAGACCAACATTGCTACGACCCGTATTCGCACCGACACTG | -0.448 ± 0.081 | 2.21 ± 0.045 |
| ACATTTGATGATACTACCATTTAATGATAATAACACCCATAAAATGATAATTATCACACCCAATTTAACTATAACGCTCTGATCATAGTCAGACCAACATTGCTACGACCCGTATTCGCACCGACAC | -2.14 ± 0.37 | -0.158 ± 0.16 |
| ACATTTGTTGATACAACCATAAAATGATAATTCACCCATCAATTGATAATTATCACACCCCAATTTAACTATAACGCTCTGATCATAGTCAGACCAACATTGCTACGACCCGTATTCGCACCGACAC | -3.27 ± 0.064 | -0.128 ± 0.16 |
| ACATTTGTGGATCCAACCATAAAATGATAATTACACCCATAAATTCATCATTATCACACCCAATTTAACTATAACGCTCTGATCATAGTCAGACCAACATTGCTACGACCCGTATTCGCACCGACAC | -2.28 ± 0.22 | 1.15 ± 0.38 |
| ACATTTGTTGATACAACCATAAAATGATAATTACACCCATAAATTGATCCGGATCACACCCATAAATTGATATTGCCTCTGATCATAGTCAGACCAACATTGCTACGACCCGTATTCGCACCGACAC | -0.929 ± 0.16 | -0.388 ± 0.14 |
| ACATTTGTTGATACCACCATCAAATGGTAATTACACCCATAAATTGATAATTATCACACCCAATTTAACTATAACGCTCTGATCATAGTCAGACCAACATTGCTACGACCCGTATTCGCACCGACAC | -2.79 ± 0.21 | 0.203 ± 0.17 |

| Sequence | relative integration efficiency (log2) [1] | relative integration efficiency (log2) [2] |
| --- | --- | --- |
| ACATTTGTTGATCAACCATAAAATGATAATTACACCCATAAATTGATAATTATCACACCCATAAATTGATATTGCCTCTGATCATAGTCAGACCAACATTGCTACGACCCGTATTCGCACCGACACT | -8.26 ± 0.75 | -4.42 ± 0.092 |
| ACATTTGTCGATCCAACCATAAAATGATAATTACACCCATAAATGGATAATTATCACACCCAATTTAACTATAACGCTCTGATCATAGTCAGACCAACATTGCTACGACCCGTATTCGCACCGACAC | -1.4 ± 0.23 | 1.38 ± 0.094 |
| ACATTTGTTGATACAACCATAAGTTGATATTTTCACCCATAAATTGATAATTATCACAACCATAAAGTGATATTTACTCTGATCATAGTCAGACCAACATTGCTACGACCCGTATTCGCACCGACAC | -0.345 ± 0.068 | -0.211 ± 0.3 |
| ACATTTTGTGATACAACCATAAAATGATAATTACACCCATAAATTGATAATTATCACACCCATAAATTGATATTGCCTCTGATCATAGTCAGACCAACATTGCTACGACCCGTATTCGCACCGACAC | -6.54 ± 0.24 | < -10 |
| ACATTTGTTGATACAACCATAAAATGATAATTACACCCATAAATTGAATTATATCACACCCATAAATTGATATTGCCTCTGATCATAGTCAGACCAACATTGCTACGACCCGTATTCGCACCGACAC | -1.65 ± 0.026 | -0.447 ± 0.17 |
| ACATTTGTTGATACAACCATAAAATGATAATTACACCCATAAATTGATAATTATCACACCCATAAATTGATATTGCCTGAGATCATAGTCAGACCAACATTGCTACGACCCGTATTCGCACCGACAC | 0.0616 ± 0.0024 | 0.172 ± 0.11 |
| ACATTTGTTGATACAACCATAAAATGATAATTACAACCATAAGTTGATATTTTTCAGTGGGTATTTAACTATAACGCTCTGATCATAGTCAGACCAACATTGCTACGACCCGTATTCGCACCGACAC | -0.515 ± 0.22 | 2.72 ± 0.21 |
| ACATTTGTTGATACAACCATTAAATAATAATTCCACCCATAAATTGATAATTATCACACCCAATTTAACTATAACGCTCTGATCATAGTCAGACCAACATTGCTACGACCCGTATTCGCACCGACAC | -1.71 ± 0.2 | 1.55 ± 0.071 |
| ACATTTGTTGATACAACCATAAAATTATTATTACACCCATTAATTGATAATTATCACACCCAATTTAACTATAACGCTCTGATCATAGTCAGACCAACATTGCTACGACCCGTATTCGCACCGACAC | -2.35 ± 0.18 | 1.15 ± 0.09 |
| ACATTTGTTGATACAACCATAAAATGATAATTACACCCATAAATTGATAATTATCAGTGGCATAAATTGATATTGCCTCTGATCATAGTCAGACCAACATTGCTACGACCCGTATTCGCACCGACAC | -0.377 ± 0.12 | 1.86 ± 0.12 |
| ACATTTCTGGATACAACCATAAAATGATAATTACACCCATAAATTCATAATTATCACACCCAATTTAACTATAACGCTCTGATCATAGTCAGACCAACATTGCTACGACCCGTATTCGCACCGACAC | -3.39 ± 0.26 | -0.65 ± 0.075 |
| ACATTTGTTGATACAACCATAAAAGGATAATTACACCCATAAATGGATAATTATCACACCCATAAATGGATATTGCCTCTGATCATAGTCAGACCAACATTGCTACGACCCGTATTCGCACCGACAC | -1.1 ± 0.065 | -0.23 ± 0.13 |
| ACATTTGTTGATACAACCCTAAAATGATAATTACACCCATAAATTGATCATTATCACACCCAATTTAACTATAACGCTCTGATCATAGTCAGACCAACATTGCTACGACCCGTATTCGCACCGACAC | -3 ± 0.31 | 0.357 ± 0.061 |
| ACATTTGTTGATACAACCATATTATGATAATTACACCCATAAATTGATAATTATCACACCCATAAATTGATATTGCCTCTGATCATAGTCAGACCAACATTGCTACGACCCGTATTCGCACCGACAC | -0.2975 ± 0.0027 | -0.476 ± 0.63 |
| AGTTTTGTTGATACAACCATAAAATGATAATTACACCCATAAATTGATAATTATCACACCCATAAATTGATATTGCCTCTGATCATAGTCAGACCAACATTGCTACGACCCGTATTCGCACCGACAC | 0.00539 ± 0.033 | 0.122 ± 0.29 |
| ACATTTGTTGATAGTACCATAAAATGATAATTACACCCATAAATTGATAATTATCACACCCATAAATTGATATTGCCTCTGATCATAGTCAGACCAACATTGCTACGACCCGTATTCGCACCGACAC | -0.367 ± 0.064 | -1.23 ± 0.17 |
| ACATTTGTTGATAAAACCATACGTTGATTTTAAGAAACCATACGCTGAAATAATCACACCCATAAATTGATATTGCCTCTGATCATAGTCAGACCAACATTGCTACGACCCGTATTCGCACCGACAC | -6.06 ± 0.18 | -3.87 ± 0.6 |
